From US7803351B2, “Blood brain barrier permeation peptides” (priority 2004, dated 2010)
Like-named read-outs stand apart in the source and are kept apart here. Numbered stars: 1 amine (or outer) side, 2 acyl side, 3 side chain; on linkers, the order of the positions; unused ones are H or OH. Square brackets hold non-standard residues; d marks the D form. Ends that are not written are not given here. * marks the point of attachment. Fluorescein(5-Mal) = O=C1OC2(c3ccc(O)cc3Oc3cc(O)ccc32)c2ccc(N3C(=O)CC(*)C3=O)cc21; εLys = N[C@@H](CCCCN[*:1])C(=O)[*:2]

Assays:
[1] = biological target: T1, Aβ 1-40 aggregates (Aβ fibrils) (Homo sapiens, UniProt P05067); assay: Binding assay of ^99mTc-peptide with Aβ fibrils (Centricon filter separation); conditions: PBS, RT, 90 min, mean of triplicate; read-out: Kd (saturable binding to Aβ fibrils)
T1 construct: preformed Aβ 1-40 aggregates; purchased
T1 sequence (P05067 672-711): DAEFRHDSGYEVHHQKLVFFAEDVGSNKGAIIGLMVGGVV
Description: Binding assays are performed to determine the binding specificity of the peptide conjugate. For example, a preliminary radioassay of Aβ-binding is performed. For example, a conjugate consisting of radiolabeled ^99mTc-peptide conjugate is incubated with Aβ fibrils in PBS for about 1-3 hours. Bound ^99mTc-peptide conjugate is separated on a Centricon filter unit (with, for example a 100 KDa cut off) and washed several times with PBS buffer. Saturable binding is indicated by calculation of a Kd (affinity constant) as well known in the art to help evaluate the relative amount of specific binding as opposed to non-specific binding. […]
Binding assays of ^99mTc-peptide with Aβ fibrils were performed in PBS. […] The concentration of aggregate-bound ^99mTc-peptide was calculated on the basis of activity retained on the filters. […]
Binding assays to preformed fibrils are performed using procedures as described in the literature (Klunk et al., 2001). […] The amount of activity incorporated in the fibrils is measured through γ-counting using previously published procedures (Zhen et al., 1999). […] The mixture is incubated at room temperature for 1.5 h, and the aggregate-bound ^99mTc-peptide and free radioactivity is separated by filtration through Centricon filtration units using a centrifuge. The aggregate-bound ^99mTc-peptide collected on filters is counted in a γ-counter. […]

[2] = system: amyloid plaques in brain sections; assay: Staining of brain tissue sections of APPsw+/− and WT mice; design: species or system mouse; conditions: 40 μm sections
Chain of amyloid plaques in brain sections (P05067 672-711 limits assumed): as the sequence (P05067 672-711) above
Excerpt: Staining experiments with cross sections of brain tissue from normal (WT) and APPsw+/− mice are suitable for evaluating target specificity of the peptide conjugate. For example, a candidate peptide conjugate is labeled with a fluorescent marker. A suitable marker is fluorescein-5-maleimide (FM; 3-equiv) in DMF, which labels the C-terminal thiol of the peptide. After a suitable reaction of peptide and FM at room temperature in the dark, the fluorescent-labeled peptide is purified, for example column-purified, requisite fraction eluted, combined, lyophilized and characterized through electron spray mass spectrometry. For tissue staining of brain sections of APPsw+/− mice (test) and WT mice (control), immunohistochemical staining of Aβ and for FM-peptide staining are performed according to published procedures (DeMattos et al., 2002; Holtzman et al., 2000). Rabbit-anti-pan Aβ antibody is used, for example, as a control, and visualized with anti-rabbit antibody conjugated with a fluorescent marker such as Alexa 568 (Molecular Probes). Staining of brain sections from normal and APPsw+/− mice are compared. Target specificity of the peptide is indicated by immunostaining of Aβ in APPsw+/− mice and no staining in WT mice.
Staining experiments with cross sections of brain tissue were also performed. […]

[3] = biological target: T2, preformed Aβ 1-40 aggregates (Homo sapiens, UniProt P05067); assay: Competitive binding of ^99mTc-peptide to preformed Aβ 1-40 aggregates with unlabeled competitor; conditions: 1,000-fold molar excess of competitor
T2 construct: preformed Aβ 1-40 aggregates; purchased
T2 sequence (P05067 672-711): as above
Description: Binding assays are performed to determine the binding specificity of the peptide conjugate. For example, a preliminary radioassay of Aβ-binding is performed. For example, a conjugate consisting of radiolabeled ^99mTc-peptide conjugate is incubated with Aβ fibrils in PBS for about 1-3 hours. Bound ^99mTc-peptide conjugate is separated on a Centricon filter unit (with, for example a 100 KDa cut off) and washed several times with PBS buffer. Saturable binding is indicated by calculation of a Kd (affinity constant) as well known in the art to help evaluate the relative amount of specific binding as opposed to non-specific binding. […] Radiolabeled peptide conjugate that is displaceable to background with either 1,000-fold molar excess of unlabeled peptide conjugate or, for example, cold Re-peptide conjugate, supports receptor-like binding behavior of the peptide conjugate to Aβ fibrils. Binding of the lead ^99mTc-peptide to preformed Aβ 1-40 aggregates in presence of increasing equivalents of unlabeled competing peptide. The aggregate-bound ^99mTc-peptide was isolated from free labeled peptide by centrifugation using Centricon (100 kDa cutoff) filters. The concentration of aggregate bound ^99mTc-peptide was calculated on the basis of activity retained on the filters (FIG. 5). […] Each data point represents a mean of triplicate measurements.

[4] = Acute toxicity in mice after intravenous bolus injection; type: in vivo; conditions: Balb/C male mice, intravenous bolus 14 mg/kg, up to several days post-injection
Description: Although absolute concentration of radiotracers in vivo is normally too low to cause any host toxicity, nevertheless host safety is a key determinant for any successful diagnostic agent. Therefore, using a Re-labeled peptide as a surrogate for a Tc-labeled peptide, acute toxicity in mice (Balb/C; male; 6-8wks old) was determined.

RBE4 cell monolayers [5] = assay: Transwell transendothelial transport across RBE4 cell monolayers (in vitro BBB model); conditions: apical to basolateral and basolateral to apical, up to 120 minutes
RBE4 cell monolayers [6] = system: RBE4 cell monolayers

## ^99mTc-peptide: peptide KKLVFFAεKGC (SEQ. ID. NO.: 1) radiolabeled with technetium-99m in its peptide-based chelation core (KKLVFFAKGC; not fully specified; conjugate chemistry not built)
[1]
  Kd: 352 ± 82 nM

## Aβ-binding peptide coupled with FM: peptide labeled on the C-terminal thiol with fluorescein-5-maleimide (FM) (KKLVFFAKGC(Fluorescein(5-Mal)); not fully specified (residues 7, 8); printed as KKLVFFAεKGC)
[2]; APPsw+/− mouse, 17 months old, FM-peptide 2 μM solution
  staining of Aβ plaques in brain sections of APPsw+/− mice: staining of plaques in the cortical region
[2]; control WT mouse (Bl/6; 13.5 months old)
  staining in brain sections of WT mice: no staining

## Re-peptide: rhenium complex of peptide KKLVFFAεKGC, surrogate for the Tc-labeled peptide (KKLVFFA[εLys]GC; not fully specified (residue 7); printed as KKLVFFAεKGC; also: rhenium complex (peptide-based chelation core))
[3]
  displacement of aggregate-bound ^99mTc-peptide by competitor: displaceable to background conditions
[4]
  acute toxicity: nontoxic

## inulin [^14C-inulin]
RBE4 cell monolayers [5]
  transwell transport / permeation across RBE4 cells: low transwell transport

## ^3H-Aβ1-40 peptide: full length tritiated Aβ1-40 peptide (SEQ. ID. NO.: 2)
RBE4 cell monolayers [6]
  transwell transport / permeation across RBE4 cells: did not show any transwell transport
